Results from the supplement of paper PMC12042874.
± gives the uncertainty stated by the source.

Assay: amyloid nucleation score (Sup35N fusion, yeast selection) (log enrichment); library NNK3; higher = more nucleation; inactive = no reads after selection
Summary of the method: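 The nucleation score equals the log enrichment of output over input reads from DiMSum, centred on the mode score of non-aggregating sequences. It was computed only for sequences with 100 or more input reads. The reads came from Illumina sequencing of plasmid inserts from psi-negative yeast expressing Sup35N fused to peptides of 20 random codons, induced with 100 μM copper sulfate for 24 hours and grown 7 days at 30°C without adenine and uracil.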
TAVKTGGLLRVVALGNSLNA showed an amyloid nucleation score of 0.399 ± 0.24.
QIFLVKPMSDFSCNSSRYTL showed an amyloid nucleation score of -0.423 ± 0.76.
With LSLSRRGYQLLLEASGRCYV the amyloid nucleation score was “inactive”.
Work on TCQRRYKKFS yielded an amyloid nucleation score of -0.633 ± 0.52.
In the case of QRYVLSCRALTGDTCWRKSG, the amyloid nucleation score is reported as “inactive”.
For RGLLEANMLGSSGDPSVNSG, the amyloid nucleation score was “inactive”.
In the case of HRTTWLIWPLS, the amyloid nucleation score is reported as “inactive”.
With CWVVHGNNRVHGHMLGLRAI the amyloid nucleation score was “inactive”.
In the case of QSNTLYIKFAAWSYFFSDPE, the amyloid nucleation score is reported as “inactive”.
For NILEYYLLTGLYVAFLYLNR, the amyloid nucleation score was “inactive”.
For IQSAMSLIVIYHGK, the amyloid nucleation score was 2.69 ± 0.076.
For SPVRVDWFSKRFSGYVMRTM, the amyloid nucleation score was “inactive”.
With VLDRVKNRVFYLLVECQKLF the amyloid nucleation score was “inactive”.
FTVSFRYSLCCRDGDGESEC gave an amyloid nucleation score of 1.97 ± 0.087.
In the case of TRQNWENNFLLWYGEVMS, the amyloid nucleation score is reported as “inactive”.
Substance LFMYMMPQGPSVTANMELVI has an amyloid nucleation score of -0.742 ± 1.1.
In the case of SMFKLMRP, the amyloid nucleation score is reported as “inactive”.
ESSISTLFIFNMVGPQ gave an amyloid nucleation score of 2.21 ± 0.068.
In the case of VTVSSWASYIIVNGKWRIKC, the amyloid nucleation score is reported as “inactive”.
With TKGFTSLSTIFFKVNKFD the amyloid nucleation score was “inactive”.
FNAPVNVLFR gave an amyloid nucleation score of -0.176 ± 0.6.
In the case of AHRRKLKWDNGHCNLRTKFR, the amyloid nucleation score is reported as “inactive”.
In the case of SSLPMGFRSVI, the amyloid nucleation score is reported as “inactive”.
EINFMKRASRVRLKQYNQ gave an amyloid nucleation score of 0.64 ± 0.26.
With DKFMWVGNSCVHSD the amyloid nucleation score was “inactive”.
With NATIKIFTTIISDYQFGMR the amyloid nucleation score was 0.152 ± 0.3.
For CYSFLWALRGMEF, the amyloid nucleation score was “inactive”.
With YHDFRMLFLWVVWSIVSIRS the amyloid nucleation score was “inactive”.
With SGATVLSLSMY the amyloid nucleation score was “inactive”.
RFIVHIYNMN gave an amyloid nucleation score of 2.59 ± 0.059.
In the case of RLEFKESRMGLLVLGDN, the amyloid nucleation score is reported as “inactive”.
With VHVYFRLADL the amyloid nucleation score was 1.3 ± 0.14.
For SSIVEPQQLTGGPASGRFGE, the amyloid nucleation score was “inactive”.
With NFVRRHWRWRGMSFSLVNSY the amyloid nucleation score was “inactive”.
LDIDSFYCVLR showed an amyloid nucleation score of 1.23 ± 0.12.
In the case of NYDIASLFTTNKSFV, the amyloid nucleation score is reported as “inactive”.
With LDHAKRHIIVPEYLSLAKKQ the amyloid nucleation score was “inactive”.
With DFPIGYHHNVMI the amyloid nucleation score was “inactive”.
For HLSRCYCYNDVSLARNFNDR, the amyloid nucleation score was “inactive”.
For IKCMNTLTDCCGMV, the amyloid nucleation score was “inactive”.
With DVITIEYVCF the amyloid nucleation score was “inactive”.
LSFYISPS gave an amyloid nucleation score of 0.748 ± 0.1.
For LYFACPTLYLFRRRVNVTHP, the amyloid nucleation score was “inactive”.
In the case of RHISRRRLREVGVCRLKVML, the amyloid nucleation score is reported as “inactive”.
Substance SRVKDYCSFGLDFKCVCVFL has an amyloid nucleation score of 2.06 ± 0.094.
For LYDDVSTVWNKKTEVGQLLN, the amyloid nucleation score was “inactive”.
For SSWPTTGRWE, the amyloid nucleation score was “inactive”.
NVNWIRFDFHFVFV gave an amyloid nucleation score of 2 ± 0.071.
With YGREMRSSMMNGGYLIIMKW the amyloid nucleation score was “inactive”.
For YNSYSSYKIVKLY, the amyloid nucleation score was “inactive”.
For LFRPSL, the amyloid nucleation score was “inactive”.
In the case of FARKWCVKNGYGSRTSASFM, the amyloid nucleation score is reported as “inactive”.
For QICTQFRSG, the amyloid nucleation score was “inactive”.
In the case of NMRGEFQTLANWVWLLQRVL, the amyloid nucleation score is reported as “inactive”.
Substance MIMINVISQCKCAGWGGNRA has an amyloid nucleation score of 3.36 ± 0.053.
With WPIIGTLNRTSGSDR the amyloid nucleation score was “inactive”.
In the case of SLMSSATICTFMG, the amyloid nucleation score is reported as “inactive”.
For SYCVRWNRIVDFVGSCRDHG, the amyloid nucleation score was 1.11 ± 0.11.
VSNDLNFILYAPTNVVMSTY gave an amyloid nucleation score of 1.25 ± 0.14.
With SGVSWTRPIWYLNWFTQSLW the amyloid nucleation score was “inactive”.
For SWRKCPNLPSCKTIPNAWVL, the amyloid nucleation score was “inactive”.
With CHILKPWLGVRKPSPFCNYS the amyloid nucleation score was “inactive”.
Substance YMFVLGYRMNCW has an amyloid nucleation score of 1.01 ± 0.17.
With ETGLLFGWDRVSSYWGVLKT the amyloid nucleation score was “inactive”.
With YTIPSPVGLVLDSPVEIRDL the amyloid nucleation score was “inactive”.
In the case of HALNSCDEFGTVMELCSCGS, the amyloid nucleation score is reported as “inactive”.
In the case of FNMWIWS, the amyloid nucleation score is reported as “inactive”.
For EINMKSLV, the amyloid nucleation score was “inactive”.
Work on KGAFEMRG yielded an amyloid nucleation score of -0.277 ± 1.1.
For FSAKDFSNVYRSPSMF, the amyloid nucleation score was “inactive”.
For VGNFLTLSVWDNSGRRIGEE, the amyloid nucleation score was 0.705 ± 0.19.
In the case of LGWSMFLFDFSFKVKSH, the amyloid nucleation score is reported as “inactive”.
For DLHVWLGVKQ, the amyloid nucleation score was “inactive”.
For FVHDFTFEGKSMVVRLNCSA, the amyloid nucleation score was “inactive”.
Work on KNTISCPCWYINRCLVYNNI yielded an amyloid nucleation score of 0.97 ± 0.17.
In the case of LIPFCAVHPLWEHHLSKSFF, the amyloid nucleation score is reported as “inactive”.
In the case of VSFLFDIW, the amyloid nucleation score is reported as 2.24 ± 0.06.
Substance CEIVFQYVFNFFSPTTSVVC has an amyloid nucleation score of 1.54 ± 0.089.
In the case of SLTLGCSDLGKGCREETYAG, the amyloid nucleation score is reported as “inactive”.
In the case of MTVPTCHNDASARLMLRLLG, the amyloid nucleation score is reported as “inactive”.
With RIFFGISVIQFLIRSYSVHR the amyloid nucleation score was “inactive”.
Substance RLRVFVIGLPGALQIVGSLG has an amyloid nucleation score of 0.005 ± 0.98.
With KIVFSKSLGFLVFVMRYNQW the amyloid nucleation score was “inactive”.
For FWMIVYMNNSLI, the amyloid nucleation score was “inactive”.
In the case of AWLNFCPSHVLLLFESYLNV, the amyloid nucleation score is reported as “inactive”.
For KANDFTVFLRRVCLLNRVNA, the amyloid nucleation score was “inactive”.
Work on NCYNQYRSSWRLTCCLF yielded an amyloid nucleation score of 3.34 ± 0.064.
For SENMTGFLNRTSIISPWTYC, the amyloid nucleation score was “inactive”.
With VMCLPLPKFI the amyloid nucleation score was “inactive”.
With TIHYG the amyloid nucleation score was “inactive”.
In the case of ILRWRHMVVWSPNVHGVGAF, the amyloid nucleation score is reported as “inactive”.
SSSSIVLDGLTFWLINTVTT gave an amyloid nucleation score of 0.598 ± 0.21.
For TRWLCLDKLHLFLLCGKIAI, the amyloid nucleation score was “inactive”.
For NELGEIAYGCGFRVVCRCMR, the amyloid nucleation score was “inactive”.
For IRYPVRV, the amyloid nucleation score was “inactive”.
For LYCECYSSLLCYGRLPAKTR, the amyloid nucleation score was “inactive”.
For ILKLQEQTSNGLAVSNESSC, the amyloid nucleation score was “inactive”.
For RFNCHRMCEHGDTLDMSYN, the amyloid nucleation score was “inactive”.
PRMRFILGFVIIEKENDRVK gave an amyloid nucleation score of -0.431 ± 0.62.
With NMVIV the amyloid nucleation score was “inactive”.
In the case of MNMGYFRFNL, the amyloid nucleation score is reported as “inactive”.
In the case of SDYTYFYM, the amyloid nucleation score is reported as “inactive”.
With CSLGLLMVQRERC the amyloid nucleation score was 1.38 ± 0.098.
For RLFKSGEFDFCYIRGHCCSV, the amyloid nucleation score was “inactive”.
For NAYCPPSLCVKRLYLFRMTK, the amyloid nucleation score was “inactive”.
With YGLIRYPLFIFSALVTT the amyloid nucleation score was “inactive”.
Work on NIVQYVWVDDWVFRCRCGAK yielded an amyloid nucleation score of 3.15 ± 0.069.
With TIEYLAGYFILMSQILGGDV the amyloid nucleation score was “inactive”.
For RVIGKCPHSRNCTPA, the amyloid nucleation score was “inactive”.
In the case of YSFHLIIESPKLVLFTHFTS, the amyloid nucleation score is reported as “inactive”.
TNTNFSVRFRTTKWMAKRRA gave an amyloid nucleation score of 1.4 ± 0.11.
With ELAFMNYYNNECSRPLLSSP the amyloid nucleation score was “inactive”.
For ASLMERSIMYFVLVNNPRSE, the amyloid nucleation score was 0.355 ± 0.29.
With IYAVSCVCVGIYGTIRLTSG the amyloid nucleation score was 0.017 ± 0.23.
With NRALNW the amyloid nucleation score was “inactive”.
With NDYCPLYIGHVGRFHPAKDV the amyloid nucleation score was “inactive”.
With IEFMCLHGKVTLITIVF the amyloid nucleation score was “inactive”.
With RIVMPLSVSFMPQVKHPMYR the amyloid nucleation score was “inactive”.
With SLRWLISESAMRVKTMWRGG the amyloid nucleation score was “inactive”.
In the case of ISTARCNLLCRCWLRIYYND, the amyloid nucleation score is reported as “inactive”.
For GMADKVDTCLWLMFY, the amyloid nucleation score was “inactive”.
For GRDEQNHRFELVL, the amyloid nucleation score was “inactive”.
In the case of GKWGWLIASWREFTS, the amyloid nucleation score is reported as “inactive”.
In the case of WAVYVGVL, the amyloid nucleation score is reported as “inactive”.
For YGCQSCHGFLCSQFGRPAHS, the amyloid nucleation score was 0.976 ± 0.21.
In the case of CSVGVAVGMIG, the amyloid nucleation score is reported as “inactive”.
For FLVFGYASVGAIETWDKTAE, the amyloid nucleation score was “inactive”.
For GKLTWIYIGIARPHEKMWLT, the amyloid nucleation score was “inactive”.
For CVQLKSTSHVYYFRDQVGLD, the amyloid nucleation score was 1.41 ± 0.087.
With HLGFVEYAAKYTMVVCGRAV the amyloid nucleation score was “inactive”.
TAYVNSGVEIYGFSVTRNNS showed an amyloid nucleation score of 1.48 ± 0.11.
In the case of LSCVRRSSLDSC, the amyloid nucleation score is reported as “inactive”.
Substance HGLFTFVGCHCLCRN has an amyloid nucleation score of 0.939 ± 0.16.
In the case of WFFMTCNGCFDHGGVKCLRS, the amyloid nucleation score is reported as “inactive”.
In the case of SPPKAAKCICAISSWSLWWT, the amyloid nucleation score is reported as “inactive”.
For FYTMELISVQRI, the amyloid nucleation score was “inactive”.
With VVERKGRSKKLVFVCLLILW the amyloid nucleation score was “inactive”.
With AKCFFPGVNLMVGSQLFWLR the amyloid nucleation score was “inactive”.
In the case of IIRMMFISFN, the amyloid nucleation score is reported as 1.84 ± 0.076.
For KRLIVVIFKQWPARGCTTHC, the amyloid nucleation score was “inactive”.
In the case of SSLHARRYGLHLSLLSPARA, the amyloid nucleation score is reported as “inactive”.
For CDFTRESYTDNTAASIPMLM, the amyloid nucleation score was “inactive”.
In the case of RAVRARFSKTTVFDWYAISG, the amyloid nucleation score is reported as “inactive”.
In the case of KMVGVKK, the amyloid nucleation score is reported as “inactive”.
In the case of YVSGKSSYIIF, the amyloid nucleation score is reported as 0.116 ± 0.71.
For RLFSWNIYLWLL, the amyloid nucleation score was 1.48 ± 0.081.
For DYDRIR, the amyloid nucleation score was “inactive”.
For MVNTKTISYWPKDSQHLRV, the amyloid nucleation score was “inactive”.
In the case of NYGAN, the amyloid nucleation score is reported as “inactive”.
For CYMFRDDRIVYHDGLNRHCK, the amyloid nucleation score was “inactive”.
Work on RYGTVDCIYCFMDLGVRDTG yielded an amyloid nucleation score of 2.46 ± 0.081.
With MWKDLVVCL the amyloid nucleation score was 0.175 ± 0.88.
For IYEVVMVCISESLFLLMVKG, the amyloid nucleation score was “inactive”.
For FQNLAYMITAAPASGKKTSR, the amyloid nucleation score was “inactive”.
LNACSGFTFLFNRVVIKVIL showed an amyloid nucleation score of -0.42 ± 0.8.
WTGLLLCVF showed an amyloid nucleation score of -0.093 ± 0.85.
For NSLNKGKFHWVNIGTSSLQG, the amyloid nucleation score was “inactive”.
In the case of MTFTCFVRFPTVRYNAKGCL, the amyloid nucleation score is reported as “inactive”.
With LDHIGKFLFRVTGCCITFTR the amyloid nucleation score was “inactive”.
In the case of AGGLSGDNWRRIDG, the amyloid nucleation score is reported as “inactive”.
